These results are taken from publication PMC5042403, “Arabidopsis CaM1 and CaM4 Promote Nitric Oxide Production and Salt Resistance by Inhibiting S-Nitrosoglutathione Reductase via Direct Binding” (PLoS Genetics, 2016).

The test has as its target T1, GST-GSNOR (GST-tagged full-length GSNOR) (Arabidopsis thaliana, UniProt Q96533 1-379).
T1 construct: Arabidopsis thaliana S-nitrosoglutathione reductase (GSNOR, At5g43940), full-length cDNA; source: E. coli BL21, purified
Put plainly: far-Western, overlay or dot blot; 1 μg of each purified GST fusion protein separated by 10% SDS-PAGE and transferred to a PVDF membrane; blot probed with 1 μg CaM4-His in 10 ml TBST with 0.1 mM CaCl2 (or 0.1 mM EGTA, with which the binding became weaker); detected with anti-His antibody. The settings on record: both partners purified.

T1 sequence (Q96533 whole entry): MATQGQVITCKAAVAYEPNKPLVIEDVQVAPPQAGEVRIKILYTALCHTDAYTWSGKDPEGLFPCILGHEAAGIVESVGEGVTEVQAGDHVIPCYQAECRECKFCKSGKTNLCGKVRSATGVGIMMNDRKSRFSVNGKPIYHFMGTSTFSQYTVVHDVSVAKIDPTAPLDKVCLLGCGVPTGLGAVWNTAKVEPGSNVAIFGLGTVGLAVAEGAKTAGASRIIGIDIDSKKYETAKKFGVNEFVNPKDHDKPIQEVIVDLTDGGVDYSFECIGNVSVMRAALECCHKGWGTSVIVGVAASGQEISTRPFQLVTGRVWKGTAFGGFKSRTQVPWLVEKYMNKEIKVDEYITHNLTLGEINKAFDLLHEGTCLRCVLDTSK

B1: CaM4-His (natural protein)
chain: not shown
notes: Arabidopsis thaliana calmodulin 4 (AtCaM4, At1g66410); AtCaM1 and AtCaM4 encode the same protein; also called CaM-His; AtCaM4; source: E. coli BL21, purified; not shown: His6, C-terminal, kept
Take B1: the binding result was “binds”.
